The target in the experiment is purified Drosophila E2F1 (in vitro binding assay) (Drosophila, UniProt Q27368 1-805). Description: in vitro binding assay.
Sequence of purified Drosophila E2F1 (in vitro binding assay) (Q27368 whole entry): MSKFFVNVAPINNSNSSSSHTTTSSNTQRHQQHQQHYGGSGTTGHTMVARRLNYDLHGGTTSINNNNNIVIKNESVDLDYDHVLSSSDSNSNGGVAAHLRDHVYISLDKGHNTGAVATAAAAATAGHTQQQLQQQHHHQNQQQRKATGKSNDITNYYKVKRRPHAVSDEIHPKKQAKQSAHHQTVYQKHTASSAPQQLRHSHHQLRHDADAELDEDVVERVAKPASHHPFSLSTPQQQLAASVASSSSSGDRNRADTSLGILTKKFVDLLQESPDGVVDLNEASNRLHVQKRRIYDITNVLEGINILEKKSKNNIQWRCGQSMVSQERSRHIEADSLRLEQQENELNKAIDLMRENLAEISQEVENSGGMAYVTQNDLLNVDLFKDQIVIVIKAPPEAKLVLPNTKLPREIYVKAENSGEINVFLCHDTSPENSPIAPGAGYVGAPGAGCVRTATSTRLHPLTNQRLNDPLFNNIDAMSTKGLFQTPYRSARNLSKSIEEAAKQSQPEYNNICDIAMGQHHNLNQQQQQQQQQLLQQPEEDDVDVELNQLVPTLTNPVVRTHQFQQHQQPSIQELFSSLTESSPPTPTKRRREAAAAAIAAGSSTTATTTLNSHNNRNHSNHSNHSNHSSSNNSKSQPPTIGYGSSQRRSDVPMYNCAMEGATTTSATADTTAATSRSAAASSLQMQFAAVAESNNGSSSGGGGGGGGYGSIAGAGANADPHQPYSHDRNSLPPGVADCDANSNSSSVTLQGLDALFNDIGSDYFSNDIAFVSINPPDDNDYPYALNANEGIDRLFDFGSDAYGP

B1: purified Drosophila Sd (in vitro binding assay) (natural protein)
chain: MKNITSSSTCSTGLLQLQNNLSCSELEVAEKTEQQAVGPGTIPSPWTPVNAGPPGALGSADTNGSMVDSKNLDVGDMSDDEKDLSSADAEGVWSPDIEQSFQEALSIYPPCGRRKIILSDEGKMYGRNELIARYIKLRTGKTRTRKQVSSHIQVLARRKLREIQAKIKVQFWQPGLQPSTSQDFYDYSIKPFPQPPYPAGKTSTAVSGDETGIPPSQLPWEGRAIATHKFRLLEFTAFMEIQRDEIYHRHLFVQLGGKPSFSDPLLETVDIRQIFDKFPEKSGGLKDLYEKGPQNAFYLVKCWADLNTDLTTGSETGDFYGVTSQYESNENVVLVCSTIVCSFGKQVVEKVESEYSRLENNRYVYRIQRSPMCEYMINFIQKLKNLPERYMMNSVLENFTILQVMRARETQETLLCIAYVFEVAAQNSGTTHHIYRLIKE
For B1, the binding result is “binds”.

Values taken from paper PMC5722641 (Developmental Cell, 2017).
